Laboratory results reported in patent US20250205324A1, “ANTIGENIC PEPTIDES FOR PREVENTION AND TREATMENT OF CANCER” (ENTEROME S.A., priority 2022, published 2025).

B1: OR51E2-B1 (peptide)
peptide: AVIGIVAAV
notes: also called ENT190_B1
B2: UBE2C-B1 (peptide)
peptide: FLYDVRTYL
notes: also called ENT168_B1; ENT_168-B1
B3: CDC20-H1 (peptide)
peptide: SLPDRILDA
notes: also called ENT204-H
B4: KIF2C-B13 (peptide)
peptide: VLNPELLML
notes: also called ENT207_B4
B5: ANKRD30A-B3 (peptide)
peptide: TLDQKLFMV
notes: also called ENT180_B1
B6: UBE2C-H1 (peptide)
peptide: ALYDVRTIL
notes: also called ENT168-H
B7: ANKRD30A-B1 (peptide)
peptide: ALYSEILTV
notes: also called ENT169_B1; ENT_169-B1
B8: CDC20-B1 (peptide)
peptide: SLPDRILTV
notes: also called ENT204_B1; ENT_204-B1
B9: CDH17-H1 (peptide)
peptide: LVIGIILAV
notes: also called ENT176-H
B10: AURKA-H1 (peptide)
peptide: YLILEYAPL
B11: AURKA-B1 (peptide)
peptide: YLILEYATV
notes: also called ENT199_B1
B12: ANKRD30A-H2 (peptide)
peptide: KILDTVHSC
B13: MMP11-B1 (peptide)
peptide: IVWSDVTYV
notes: also called ENT187_B1
B14: KIF2C-B11 (peptide)
peptide: QMNPELLTL
notes: also called ENT207_B2
B15: CDH17-B1 (peptide)
peptide: KIIGIILAV
notes: also called ENT176_B1; ENT_176-B1
B16: ANKRD30A-H3 (peptide)
peptide: SLDQKLFQL
B17: ANKRD30A-B2 (peptide)
peptide: LILDTVHSL
notes: also called ENT174_B1
B18: UBE2C-B3 (peptide)
peptide: YLQQELMNL
notes: also called ENT178_B1
B19: UBE2C-B2 (peptide)
peptide: SLLSIQSYV
notes: also called ENT172_B1
B20: UBE2C-H2 (peptide)
peptide: ILLSIQSLL
B21: KIF2C-B1 (peptide)
peptide: ALNPELLAL
notes: also called ENT207_B1; ENT_207-B1
B22: TOP2A-B2 (peptide)
peptide: ALIFGQLLL
notes: also called ENT205_B1; ENT_205-B1
B23: TOP2A-H2 (peptide)
peptide: ALIFGQLLT
notes: also called ENT205-H
B24: MMP11-H1 (peptide)
peptide: KVWSDVTPL
B25: UBE2C-H3 (peptide)
peptide: RLQQELMTL
B26: KIF2C-B12 (peptide)
peptide: VMNPELLLL
notes: also called ENT207_B3
B27: ANKRD30A-H1 (peptide)
peptide: AVYSEILSV
notes: also called ENT169-H
B28: UBE2C-B11 (peptide)
peptide: YLYDVRTAL
notes: also called ENT168_B2
B29: OR51E2-H1 (peptide)
peptide: AQIGIVAVV
B30: UBE2C-H11 (peptide)
peptide: ALYDVRTILL
notes: also called UBEC2-H11; ENT168-HL
B31: KIF2C-H1 (peptide)
peptide: AINPELLQL
notes: also called ENT207-H

Molecular target: T1, HLA-A*0201 molecule expressed on human T2 cells (human)
T1 construct: surface HLA-A2 detected with anti-HLA-A2-PE (clone REA517); also called HLA-A2
Test: T2 cell HLA-A*0201 binding assay, anti-HLA-A2-PE flow cytometry
Method: T2 cells (5·10⁴ cells per well) are incubated with decreasing concentrations of peptides from 100 μM to 0.1 μM (4 points: 100 μM, 10 μM, 1 μM, 0.1 μM) in serum-free medium (TexMacs) supplemented with 100 ng/μl of 2 Microglobulin at 37° C. for 16 hours. Cells are then washed two times and marked with the anti-HLA-A2 antibody coupled to PE (clone REA517, Miltenyi).
For each peptide concentration, the geometric mean of the labelling associated with the peptide of interest is subtracted from background noise and reported as a percentage of the geometric mean of the HLA-A*0202 labelling obtained for the reference peptide HIV pol 589-597 at a concentration of 100 μM.

Binder	concentration of peptide that induces 20% of HLA-A2 expression	in vitro binding affinity (relative affinity, normalized against HIV-pol)	mean relative fluorescence intensity at 0.1 µM peptide	mean relative fluorescence intensity at 1 µM peptide	mean relative fluorescence intensity at 10 µM peptide	mean relative fluorescence intensity at 100 µM peptide
B1	0.7 µM	0.8 ratio to HIV pol reference peptide	3.5 % of HIV pol reference peptide	25.4 % of HIV pol reference peptide	59.3 % of HIV pol reference peptide	
B2		3.1 ratio to HIV pol reference peptide				
B3		6.3 ratio to HIV pol reference peptide				
B4	0.189 µM	0.8 ratio to HIV pol reference peptide	10.5 % of HIV pol reference peptide	42.1 % of HIV pol reference peptide	45.3 % of HIV pol reference peptide	50.3 % of HIV pol reference peptide
B5	0.14 µM	0.2 ratio to HIV pol reference peptide	18.8 % of HIV pol reference peptide	67.5 % of HIV pol reference peptide	120 % of HIV pol reference peptide	112 % of HIV pol reference peptide
B6	15 µM	8.8 ratio to HIV pol reference peptide	3.8 % of HIV pol reference peptide	-0.2 % of HIV pol reference peptide	6.8 % of HIV pol reference peptide	134 % of HIV pol reference peptide
B7	0.05 µM	0.04 ratio to HIV pol reference peptide	33.3 % of HIV pol reference peptide	77.2 % of HIV pol reference peptide	93.7 % of HIV pol reference peptide	88.2 % of HIV pol reference peptide
B8		0.6 ratio to HIV pol reference peptide				
B9	14.1 µM	14.9 ratio to HIV pol reference peptide	0.5 % of HIV pol reference peptide	3.7 % of HIV pol reference peptide	17.6 % of HIV pol reference peptide	
B10	12.2 µM	22.8 ratio to HIV pol reference peptide	0 % of HIV pol reference peptide	0 % of HIV pol reference peptide	13.1 % of HIV pol reference peptide	164 % of HIV pol reference peptide
B11	1.16 µM					
B12	25.3 µM	29.9 ratio to HIV pol reference peptide	1.2 % of HIV pol reference peptide	1.8 % of HIV pol reference peptide	8.7 % of HIV pol reference peptide	52.3 % of HIV pol reference peptide
B13	0.08 µM	0.07 ratio to HIV pol reference peptide	19.8 % of HIV pol reference peptide	73.3 % of HIV pol reference peptide	97.1 % of HIV pol reference peptide	80.2 % of HIV pol reference peptide
B14		3.9 ratio to HIV pol reference peptide				
B15	0.2 µM					
B16	0.32 µM	0.4 ratio to HIV pol reference peptide	5.9 % of HIV pol reference peptide	41.9 % of HIV pol reference peptide	99.1 % of HIV pol reference peptide	97.1 % of HIV pol reference peptide

Binder	concentration of peptide that induces 20% of HLA-A2 expression	in vitro binding affinity (relative affinity, normalized against HIV-pol)	mean relative fluorescence intensity at 0.1 µM peptide	mean relative fluorescence intensity at 1 µM peptide	mean relative fluorescence intensity at 10 µM peptide	mean relative fluorescence intensity at 100 µM peptide
B17	1.13 µM	1.3 ratio to HIV pol reference peptide	1.7 % of HIV pol reference peptide	12.4 % of HIV pol reference peptide	72 % of HIV pol reference peptide	90.8 % of HIV pol reference peptide
B18	0.14 µM					
B19	0.22 µM	0.2 ratio to HIV pol reference peptide	14.2 % of HIV pol reference peptide	52 % of HIV pol reference peptide	92 % of HIV pol reference peptide	
B20	3.27 µM	3.5 ratio to HIV pol reference peptide	2.1 % of HIV pol reference peptide	8.5 % of HIV pol reference peptide	32.7 % of HIV pol reference peptide	
B21		1.6 ratio to HIV pol reference peptide				
B22	1.79 µM	2.9 ratio to HIV pol reference peptide	3.4 % of HIV pol reference peptide	5.5 % of HIV pol reference peptide	73.6 % of HIV pol reference peptide	146 % of HIV pol reference peptide
B23			5.1 % of HIV pol reference peptide	0.3 % of HIV pol reference peptide	3.2 % of HIV pol reference peptide	0 % of HIV pol reference peptide
B24	0.65 µM	0.6 ratio to HIV pol reference peptide		24.9 % of HIV pol reference peptide	72.7 % of HIV pol reference peptide	82.5 % of HIV pol reference peptide
B25	1.06 µM	1.1 ratio to HIV pol reference peptide	1.3 % of HIV pol reference peptide	12.3 % of HIV pol reference peptide	71.5 % of HIV pol reference peptide	82.4 % of HIV pol reference peptide
B26	0.258 µM	1.1 ratio to HIV pol reference peptide	9.8 % of HIV pol reference peptide	41.4 % of HIV pol reference peptide	84.7 % of HIV pol reference peptide	67.7 % of HIV pol reference peptide
B27	0.65 µM					
B28	0.87 µM	0.7 ratio to HIV pol reference peptide	6.6 % of HIV pol reference peptide	22.2 % of HIV pol reference peptide	68.4 % of HIV pol reference peptide	87.5 % of HIV pol reference peptide
B29	5.68 µM	6.2 ratio to HIV pol reference peptide	0 % of HIV pol reference peptide	4 % of HIV pol reference peptide	32 % of HIV pol reference peptide	
B30	14.9 µM	8.7 ratio to HIV pol reference peptide	4.2 % of HIV pol reference peptide	-2.3 % of HIV pol reference peptide	8.9 % of HIV pol reference peptide	135 % of HIV pol reference peptide
B31	22.6 µM	31.1 ratio to HIV pol reference peptide	0 % of HIV pol reference peptide	0.4 % of HIV pol reference peptide	9.5 % of HIV pol reference peptide	64.9 % of HIV pol reference peptide
